Read-outs that look alike come from different tables or passages of the source.
Legend:
[1] = target: T1, human CD40-Fc protein (amino acid residue 21-193 of SEQ ID NO: 67 linked to N-terminus of amino acid residue … (human, biotin-labeled in the capture ELISA and in the benchmark blocking ELISA; unlabeled when coated in the ligand blocking ELISA); assay: capture ELISA; antibody captured, biotin-labeled human CD40-Fc in solution
T1 construct: also called biotin-labeled human CD40-Fc; human CD40-Fc-biotin
Experimental: (§1) Plates were washed 4 times with wash buffer (PBS+0.05% Tween-20, PBST) and then blocked with 200 μl/well blocking buffer (5% w/v non-fatty milk in PBST) for 2 hours at 37° C. […] After a final wash, plates were incubated with 100 μl/well ELISA substrate TMB (Innoreagents, Cat # TMB-S-002). The reaction was stopped in 15 minutes at 25° C. with 50 μl/well 1M H₂SO₄, and the absorbance was read at 450 nm and plotted against antibody concentration. Data were analyzed using Graphpad Prism software and EC₅₀ values were reported.

[2] = target: T2, cynomolgus monkey CD40-his protein (Acro biosystems, Cat # CD0-052H6) (cynomolgus monkey, UniProt G7PG38 21-193); assay: SPR, Biacore T200; antibody captured, antigen flowed; 1:1 Langmuir fit
T2 construct: Bought reagent; also called Cynomolgus CD40-his
Description: (§2) Briefly, goat anti-mouse IgG (GE healthcare, Cat # BR100838, Mouse Antibody Capture Kit) was covalently linked to a CM5 or a Protein G chip (carboxy methyl dextran coated chip) via primary amines, using a standard amine coupling kit provided by Biacore (GE healthcare, Pittsburgh, Pa., USA). Un-reacted moieties on the biosensor surface were blocked with ethanolamine. […] Then, human CD40-his (Acro biosystems, Cat # CD0-H5228) or cynomolgus monkey CD40-his protein (Acro biosystems, Cat # CD0-052H6) in HBS EP buffer (provided by Biacore) was flowed onto the chip at a flow rate of 30 μL/min. The antigen-antibody association kinetics was followed for 2 minutes and the dissociation kinetics was followed for 10 minutes. The association and dissociation curves were fit to a 1:1 Langmuir binding model using BIA evaluation software.

[3] = target: T3, Human CD40-his protein (Acro biosystems, Cat # CD0-H5228) (human, UniProt P25942 21-193); assay: as above
T3 construct: Bought reagent; not shown: his tag
Description: as §2

[4] = target: T1, human CD40-Fc protein (amino acid …); assay: ligand blocking ELISA: human CD40-Fc coated, antibody titrated, then biotin-labeled human CD40L-his (blocked ligand), streptavidin-HRP, OD(450-630)
Experimental: (§3) Briefly, human CD40-Fc proteins (amino acid residue 21-193 of SEQ ID NO: 67 linked to N-terminus of amino acid residue 99-330 of SEQ ID NO.: 24) were coated on 96-well micro plates at 2 μg/mL in coating buffer (PBS) and incubated overnight at 4° C. The next day, plates were washed with wash buffer (PBS+0.05% Tween-20, PBST), and blocked with 5% w/v non-fatty milk in PBST for 2 hours at 37° C. Plates were then washed again using wash buffer.
(§4) Serially diluted the mouse anti-CD40 antibodies of the present invention or the controls (starting at 200 nM with a four-fold serial dilution) in 2.5% w/v non-fatty milk in PBST were prepared to the plates and incubated with the human CD40-Fc proteins at room temperature for 40 minutes. […] Plates were washed again. 100 μl/well of streptavidin conjugated HRP was added and incubated for 40 minutes at 37° C. Plates were washed again using wash buffer. Finally, TMB was added and the reaction was stopped using 1M H₂SO₄, and the absorbance was read at 450 nm. Data were analyzed using Graphpad Prism software and IC₅₀ values were reported.

[5] = target: T4, full length human CD40 (uniprot # P25942-1) on the membrane of 293T-CD40 cells (human, UniProt P25942 21-277); assay: flow cytometry on 293T-CD40 cells, PE-labeled secondary antibody, MFI
T4 construct: also called cell surface CD40
Experimental: 2×10⁵ cells per well in 96 well-plates were incubated with the mouse anti-CD40 antibodies or the controls of various concentrations in FACS buffer for 40 minutes on ice. […] Following an incubation of 40 minutes at 4° C. in dark, cells were washed three times and resuspended in FACS buffer. Fluorescence was measured using a Becton Dickinson FACS Canto II-HTS equipment and plotted against antibody concentration.

[6] = target: T1, human CD40-Fc protein (amino acid …); assay: competitive ELISA; coated human CD40-Fc, competitor biotin human CD40L-his
Experimental: as §3, §4

[7] = target: T1, human CD40-Fc protein (amino acid …); assay: capture ELISA (antibody captured on coated anti-IgG F(ab')2, biotin-labeled human CD40-Fc in solution, streptavidin-HRP, OD(450-630))
Experimental: as §1

[8] = target: T1, human CD40-Fc protein (amino acid …); assay: as above; remark: listed apart in the source
Experimental: as §1

[9] = target: T3, Human CD40-his protein (Acro …); assay: SPR, Biacore; antibody captured, human CD40-his flowed
Description: as §2

[10] = target: T1, human CD40-Fc protein (amino acid …); assay: capture ELISA; antibody captured, biotin-labeled human CD40-Fc in solution; remark: listed apart in the source
Experimental: as §1

| Binder | EC50 [1] | Kd [2] | koff [2] | kon [2] | Kd [3] | koff [3] | kon [3] | IC50 (read off the curve) [4] | EC50 (read off the curve) [5] | IC50 [6] | EC50 (read off the curve) [7] | EC50 (read off the curve) [8] | Kd [9] | koff [9] | kon [9] | EC50 [10] |
| --- | --- | --- | --- | --- | --- | --- | --- | --- | --- | --- | --- | --- | --- | --- | --- | --- |
| mouse anti-CD40 monoclonal antibody C1C1 (antibody, V domains shown, those are used here for the chimeric antibody only; also called Mouse C1C1; mouse C1C1) VH: EVKLVESGGGLVKPGASLKLSCAASGFTFSNYGMSWVRQNSDKRLEWVASISSGGDDTYYPDNVKGRCTISRENAKNTLYLEMSSLKTEDTALYYCTRAGGKAMDYWGQGTSVTVST VL: DIVLTQSPATLSVIPGNSVSLSCRASQSIRDNLHWYQQKSHESPRLLINYASQSISGIPSRFSGSGSGTDFTLTINSVETEDFGIYFCQQFNSWPLTFGGGTKLELK | 0.19 nM | 0.486 nM | 0.00119 s⁻¹ | 2.45e+06 M⁻¹ s⁻¹ | 0.217 nM | 0.000542 s⁻¹ | 2.49e+06 M⁻¹ s⁻¹ | ~5 nM | ~0.5 nM | 5.19 nM | ~0.02 µg/mL | ~0.2 nM |  |  |  |  |
| chimeric antibody C1C1 (antibody, human IgG1, kappa, V domains shown, also called chC1C1; chimeric C1C1) VH: EVKLVESGGGLVKPGASLKLSCAASGFTFSNYGMSWVRQNSDKRLEWVASISSGGDDTYYPDNVKGRCTISRENAKNTLYLEMSSLKTEDTALYYCTRAGGKAMDYWGQGTSVTVST VL: DIVLTQSPATLSVIPGNSVSLSCRASQSIRDNLHWYQQKSHESPRLLINYASQSISGIPSRFSGSGSGTDFTLTINSVETEDFGIYFCQQFNSWPLTFGGGTKLELKR |  |  |  |  |  |  |  |  |  |  |  |  | 7.09 nM | 0.00575 s⁻¹ | 810000 M⁻¹ s⁻¹ | 0.236 nM |

Reference: US20200332017A1 (SALUBRIS CHENGDU BIOTECH, published 2020)
